Experimental data taken from patent publication US20230220381 (published 2023).

What was measured:
[1] = target: T1, Thrombin (Homo sapiens, UniProt P00734;P00734 P00734:328-363,P00734:364-622); test: FP; no binding observed with up to 2 uM thrombin
[2] = target: T1, Thrombin; test: FP; 20 mM Tris, 140 mM NaCl, 20 mM KCl, 1 mM CaCl2, 1 mM MgCl2, 0.1% Triton X, room temperature

B1: NCS (ssDNA)
DNA: GGTTGGTGTTGTTTG
[1]
  binding result: no binding

B2: NCL (ssDNA)
DNA: CGTCGAGGCCCCTTCTTCTTCGTCTTCTTCTTAGGATACACGTCACGCCTTTTTTTTT
[1]
  binding result: no binding

B3: PC (positive control TBA 15mer) (ssDNA)
DNA: GGTTGGTGTGGTTGG
[2]
  Kd: 0.01 µM

B4: TBA1F (ssDNA)
DNA: CGTCGAGGCCCCTTCTTCTTCGTCTTCTTCTTAGGAGGTGGTGTGGTTGGTTTTACACGTCACGCCTTTTTTTTT
modifications: branched DNA-encoded construct: code strand with branching unit BU; aptamer branch …
[2]
  Kd: 0.013 µM
